From article PMC12292835, “Amylin Receptor 1 Mutagenesis Revealed a Potential Role of Calcitonin Serine 29 in Receptor Interaction” (Biomedicines, 2025)
pKi: −log10 of the molar value.

Legend:
[1] = biological target: FITC-labeled AC413(6–25) with Y25P mutation; experiment: fluorescence anisotropy, FITC-peptide probe binding; settings: anisotropy at the highest receptor concentration shown, log [RAMP1 ECD-CTR ECD fusion] M = -6; parent: est. 0.19; read off a plot
[2] = biological target: FITC-labeled salmon calcitonin (sCT) fragment(22–32); experiment: as above; settings: anisotropy at the highest receptor concentration shown for this mutant, read off a plot
[3] = biological target: amylin receptor 1 extracellular domain, wild type (hRAMP1.24–111-(GSA)3-hCTR.34–141-H6) (human) (UniProt O60894); experiment: competition binding assay; non-labeled sCT(22–32) as competitor on amylin receptor 1 ECDs (Figure S3); probe and conditions not shown
[4] = biological target: amylin receptor 1 ECD ECD (Homo sapiens) (UniProt P30988); settings: cited from earlier work
[5] = log [RAMP1 ECD-CTR ECD fusion] M = -5.5, parent: est. 0.19

salmon calcitonin fragment sCT(22-32) 22-32, sequence (P01263 whole entry, looked up, the tested form may be a part): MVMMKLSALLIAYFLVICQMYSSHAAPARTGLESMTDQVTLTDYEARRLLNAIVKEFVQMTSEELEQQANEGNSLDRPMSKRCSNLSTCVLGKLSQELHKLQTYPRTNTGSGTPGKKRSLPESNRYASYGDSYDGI

Substance	response [1]	response [2, 5]	also measured
amylin receptor 1 extracellular domain, wild type (hRAMP1.24–111-(GSA)3-hCTR.34–141-H6) (from UniProt O60894) D101A	0.041		response ([2]; log [RAMP1 ECD-CTR ECD fusion] M = -6, parent: est. 0.18): 0.035
amylin receptor 1 extracellular domain, wild type (hRAMP1.24–111-(GSA)3-hCTR.34–141-H6) (from UniProt O60894) D101E	0.046	0.035	
amylin receptor 1 extracellular domain, wild type (hRAMP1.24–111-(GSA)3-hCTR.34–141-H6) (from UniProt O60894) N135A	0.1	0.081	
amylin receptor 1 extracellular domain, wild type (hRAMP1.24–111-(GSA)3-hCTR.34–141-H6) (from UniProt O60894) N135D	0.056	0.052	
non-labeled salmon calcitonin (sCT) (22–32) fragment (peptide)			pKi [3]: 6.05
salmon calcitonin fragment sCT(22-32) 22-32 (from UniProt P01263)			pKi [4]: 5.60
